Non-standard residues stand in square brackets, D forms with d. Residues, ends and D or L forms follow the SMILES beside them. *: point of attachment. PhAc = O=C(Cc1ccccc1)*
What was measured:
5-LOX = biological target: T1, 5-LOX (Homo sapiens, UniProt P09917); details: range of reported values, various blood cell systems; cited from earlier work
T1 sequence (P09917 1-674): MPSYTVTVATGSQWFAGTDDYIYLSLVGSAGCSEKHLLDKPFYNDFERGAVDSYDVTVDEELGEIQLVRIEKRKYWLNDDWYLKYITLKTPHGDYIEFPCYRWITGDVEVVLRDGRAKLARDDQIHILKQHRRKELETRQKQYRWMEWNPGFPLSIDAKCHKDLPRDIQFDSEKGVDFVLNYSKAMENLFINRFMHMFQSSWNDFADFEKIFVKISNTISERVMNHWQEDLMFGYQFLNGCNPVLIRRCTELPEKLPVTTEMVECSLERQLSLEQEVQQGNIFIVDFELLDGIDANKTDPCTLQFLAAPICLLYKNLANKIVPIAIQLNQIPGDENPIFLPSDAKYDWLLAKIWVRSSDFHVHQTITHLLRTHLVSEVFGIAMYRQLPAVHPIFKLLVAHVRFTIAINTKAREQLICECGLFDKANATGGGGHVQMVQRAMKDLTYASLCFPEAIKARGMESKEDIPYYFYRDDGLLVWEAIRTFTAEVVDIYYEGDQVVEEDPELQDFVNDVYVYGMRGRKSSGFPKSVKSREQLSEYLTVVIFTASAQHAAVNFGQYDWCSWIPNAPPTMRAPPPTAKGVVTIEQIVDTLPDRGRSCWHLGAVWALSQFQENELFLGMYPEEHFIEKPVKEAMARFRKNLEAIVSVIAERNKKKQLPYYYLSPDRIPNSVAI

[1] = biological target: T2, vasopressin (V1a) receptor (Homo sapiens, UniProt P37288); experiment: ^125I-HOLVA binding to PC3 cells
T2 construct: endogenous in cells; host or cells: PC3 cells (ATCC)
T2 sequence (P37288 whole entry): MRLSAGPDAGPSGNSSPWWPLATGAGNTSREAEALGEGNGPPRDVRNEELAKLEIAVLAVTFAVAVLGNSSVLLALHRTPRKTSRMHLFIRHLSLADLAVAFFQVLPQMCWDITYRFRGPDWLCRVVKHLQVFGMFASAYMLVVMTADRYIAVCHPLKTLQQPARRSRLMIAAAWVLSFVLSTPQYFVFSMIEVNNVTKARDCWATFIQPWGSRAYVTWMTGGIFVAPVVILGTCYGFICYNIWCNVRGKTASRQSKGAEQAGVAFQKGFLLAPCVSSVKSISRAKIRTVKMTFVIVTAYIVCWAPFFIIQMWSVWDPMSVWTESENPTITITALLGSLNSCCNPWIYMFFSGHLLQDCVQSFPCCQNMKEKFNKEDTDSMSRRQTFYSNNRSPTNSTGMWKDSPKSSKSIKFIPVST

bombesin receptor = biological target: T3, bombesin receptor (Homo sapiens, UniProt P30550); experiment: ^125I-[Nle^14]-bombesin binding to PC3 cells; details: 37° C.
T3 construct: endogenous in cells; host or cells: PC3 cells (ATCC)
T3 sequence (P30550 whole entry): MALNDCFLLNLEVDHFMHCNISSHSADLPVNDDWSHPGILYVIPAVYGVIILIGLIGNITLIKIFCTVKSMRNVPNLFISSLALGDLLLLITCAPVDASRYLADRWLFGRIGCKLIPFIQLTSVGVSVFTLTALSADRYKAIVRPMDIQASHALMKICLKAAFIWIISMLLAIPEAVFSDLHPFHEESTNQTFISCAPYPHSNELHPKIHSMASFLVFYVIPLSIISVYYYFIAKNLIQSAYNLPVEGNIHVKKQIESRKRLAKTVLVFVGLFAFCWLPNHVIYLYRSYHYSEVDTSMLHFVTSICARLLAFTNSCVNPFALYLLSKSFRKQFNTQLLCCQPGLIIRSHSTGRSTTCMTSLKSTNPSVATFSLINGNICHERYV

NTR1 [2] = biological target: T4, NTR1 (Homo sapiens, UniProt P30989); experiment: ^125I-NT binding to isolated PC3 cell membranes; set-up: Ab-NTR1 detected two major bands in extracts of PC3 cells, the parent protein of 50 kDa; endogenous in cells; host or cells: PC3 cells (ATCC)
T4 sequence (P30989 whole entry): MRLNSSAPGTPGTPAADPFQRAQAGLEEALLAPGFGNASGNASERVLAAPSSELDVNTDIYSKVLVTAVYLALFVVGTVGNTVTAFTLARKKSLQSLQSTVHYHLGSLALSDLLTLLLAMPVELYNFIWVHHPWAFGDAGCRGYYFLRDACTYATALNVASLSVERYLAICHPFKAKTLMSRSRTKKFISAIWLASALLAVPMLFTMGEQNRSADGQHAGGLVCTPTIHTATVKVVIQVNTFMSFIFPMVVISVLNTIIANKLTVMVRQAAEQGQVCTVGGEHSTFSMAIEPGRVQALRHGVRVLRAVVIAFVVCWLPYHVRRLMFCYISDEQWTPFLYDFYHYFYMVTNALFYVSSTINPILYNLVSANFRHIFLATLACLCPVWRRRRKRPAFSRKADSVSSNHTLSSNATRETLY

[3] = biological target: vasopressin (V1a) receptor of PC3 cells (UniProt P37288); experiment: 125I-ligand binding to PC3 cells with 60 µM SKF-96365
Sequence of vasopressin (V1a) receptor of PC3 cells (P37288 whole entry): as the sequence (P37288 whole entry) above

[4] = biological target: vasopressin (V1a) receptor of PC3 cells (UniProt P37288); experiment: 125I-ligand binding to PC3 cells, 37 C, with 60 µM Rev-5901
[5] = biological target: vasopressin (V1a) receptor of PC3 cells (UniProt P37288); experiment: 125I-ligand binding to PC3 cells, 37 C, with 12 µM AA-861
[6] = biological target: vasopressin (V1a) receptor of PC3 cells (UniProt P37288); experiment: 125I-HOLVA binding to PC3 cell membranes with 60 µM SKF-96365
[7] = biological target: vasopressin (V1a) receptor of PC3 cells (UniProt P37288)
[8] = biological target: vasopressin (V1a) receptor of PC3 cells (UniProt P37288); experiment: 125I-ligand binding to PC3 cells with 60 µM NIF
[9] = biological target: vasopressin (V1a) receptor of PC3 cells (UniProt P37288); experiment: 125I-ligand binding to PC3 cells with 12 µM phloretin
[10] = biological target: vasopressin (V1a) receptor of PC3 cells (UniProt P37288); experiment: 125I-ligand binding to PC3 cells with 60 µM phloretin
[11] = biological target: vasopressin (V1a) receptor of PC3 cells (UniProt P37288); experiment: 125I-ligand binding to PC3 cells, 37 C, with 12 µM MK886
[12] = biological target: vasopressin (V1a) receptor of PC3 cells (UniProt P37288); experiment: 125I-ligand binding to PC3 cells with 12 µM verapamil
[13] = biological target: vasopressin (V1a) receptor of PC3 cells (UniProt P37288); experiment: 125I-ligand binding to PC3 cells, 37 C, with 12 µM NDGA
[14] = biological target: vasopressin (V1a) receptor of PC3 cells (UniProt P37288); experiment: 125I-ligand binding to PC3 cells, 37 C, with 60 µM MK886
[15] = biological target: vasopressin (V1a) receptor of PC3 cells (UniProt P37288); experiment: 125I-ligand binding to PC3 cells with 60 µM verapamil
[16] = biological target: vasopressin (V1a) receptor of PC3 cells (UniProt P37288); experiment: 125I-HOLVA binding to PC3 cell membranes with 60 µM NIF
[17] = biological target: vasopressin (V1a) receptor of PC3 cells (UniProt P37288); experiment: 125I-HOLVA binding to PC3 cell membranes with 60 µM verapamil
[18] = biological target: vasopressin (V1a) receptor of PC3 cells (UniProt P37288); experiment: 125I-ligand binding to PC3 cells, 37 C, with 12 µM Rev-5901
[19] = biological target: vasopressin (V1a) receptor of PC3 cells (UniProt P37288); experiment: Scatchard analysis, PC3 cells
[20] = biological target: vasopressin (V1a) receptor of PC3 cells (UniProt P37288); experiment: 125I-ligand binding to PC3 cells, 37 C, with 60 µM NDGA
[21] = biological target: vasopressin (V1a) receptor of PC3 cells (UniProt P37288); experiment: 125I-ligand binding to PC3 cells with 12 µM SKF-96365
[22] = biological target: vasopressin (V1a) receptor of PC3 cells (UniProt P37288); experiment: 125I-ligand binding to PC3 cells, 37 C, with 60 µM AA-861
[23] = biological target: vasopressin (V1a) receptor of PC3 cells (UniProt P37288); experiment: 125I-ligand binding to PC3 cells
[24] = biological target: vasopressin (V1a) receptor of PC3 cells (UniProt P37288); experiment: 125I-ligand binding to PC3 cells with 12 µM NIF
[25] = biological target: bombesin receptor of PC3 cells; experiment: 125I-ligand binding to PC3 cells with 60 µM SKF-96365
Sequence of bombesin receptor of PC3 cells (P30550 whole entry): as the sequence (P30550 whole entry) above

[26] = biological target: bombesin receptor of PC3 cells; experiment: 125I-ligand binding to PC3 cells, 37 C, with 60 µM Rev-5901
[27] = biological target: bombesin receptor of PC3 cells; experiment: 125I-ligand binding to PC3 cells, 37 C, with 12 µM AA-861
[28] = biological target: bombesin receptor of PC3 cells
[29] = biological target: bombesin receptor of PC3 cells; experiment: 125I-ligand binding to PC3 cells with 60 µM NIF
[30] = biological target: bombesin receptor of PC3 cells; experiment: 125I-ligand binding to PC3 cells with 12 µM phloretin
[31] = biological target: bombesin receptor of PC3 cells; experiment: 125I-ligand binding to PC3 cells with 60 µM phloretin
[32] = biological target: bombesin receptor of PC3 cells; experiment: 125I-ligand binding to PC3 cells, 37 C, with 12 µM MK886
[33] = biological target: bombesin receptor of PC3 cells; experiment: 125I-ligand binding to PC3 cells with 12 µM verapamil
[34] = biological target: bombesin receptor of PC3 cells; experiment: 125I-ligand binding to PC3 cells, 37 C, with 12 µM NDGA
[35] = biological target: bombesin receptor of PC3 cells; experiment: 125I-ligand binding to PC3 cells, 37 C, with 60 µM MK886
[36] = biological target: bombesin receptor of PC3 cells; experiment: 125I-ligand binding to PC3 cells with 60 µM verapamil
[37] = biological target: bombesin receptor of PC3 cells; experiment: 125I-ligand binding to PC3 cells, 37 C, with 12 µM Rev-5901
[38] = biological target: bombesin receptor of PC3 cells; experiment: Scatchard analysis, PC3 cells
[39] = biological target: bombesin receptor of PC3 cells; experiment: 125I-ligand binding to PC3 cells, 37 C, with 60 µM NDGA
[40] = biological target: bombesin receptor of PC3 cells; experiment: 125I-ligand binding to PC3 cells with 12 µM SKF-96365
[41] = biological target: bombesin receptor of PC3 cells; experiment: 125I-ligand binding to PC3 cells, 37 C, with 60 µM AA-861
[42] = biological target: bombesin receptor of PC3 cells; experiment: 125I-ligand binding to PC3 cells
[43] = biological target: bombesin receptor of PC3 cells; experiment: 125I-ligand binding to PC3 cells with 12 µM NIF
[44] = biological target: neurotensin receptor NTR1 of PC3 cells (human) (UniProt P30989); experiment: UV crosslinking to PC3 cells with 50 µM MK886, immunoprecipitation with antiserum to NTR1
Sequence of neurotensin receptor NTR1 of PC3 cells (human) (P30989 whole entry): as the sequence (P30989 whole entry) above

[45] = biological target: neurotensin receptor NTR1 of PC3 cells (human) (UniProt P30989); experiment: UV crosslinking to PC3 cells with 50 µM NDGA, immunoprecipitation with antiserum to NTR1
[46] = biological target: neurotensin receptor NTR1 of PC3 cells (human) (UniProt P30989); experiment: UV crosslinking to PC3 cells with phloretin, immunoprecipitation with Ab-NTR1
[47] = biological target: neurotensin receptor NTR1 of PC3 cells (human) (UniProt P30989); experiment: UV crosslinking to PC3 cells with NIF, immunoprecipitation with Ab-NTR1
[48] = biological target: neurotensin receptor NTR1 of PC3 cells (human) (UniProt P30989); experiment: UV crosslinking to PC3 cells with verapamil, immunoprecipitation with Ab-NTR1
NTR1 [49] = biological target: T4, NTR1; experiment: ^125I-NT binding to PC3 cells; details: LOX blockers

CCCCCC#CCC#CCC#CCC#CCCCC(=O)O [ETYA, 5,8,11,14-eicosatetraynoic acid]
IC50 (5-LOX): 6000 to 50000 nM

CCOc1ccc(C[C@@H](NC(=O)Cc2ccccc2)C(=O)N[C@@H](Cc2ccccc2)C(=O)N[C@@H](CCC(N)=O)C(=O)N[C@@H](CC(N)=O)C(=O)N[C@@H](CCCCN)C(=O)N2CCC[C@H]2C(=O)N[C@@H](CCCNC(=N)N)C(N)=O)cc1 [^125I-HOLVA, des-Gly-[Phaa1, D-Tyr(Et)2, Lys6, Arg8]-vasopressin] (PhAc-[dY](Et)FQNKPR-NH2; N-terminus and C-terminus assumed)
Specific Binding (% of total) ([1]; 10^5 cpm ^125I-ligand): 77 % of total | Bmax ([1]; Scatchard analysis): 156 ± 12 fmol/mg

CC1=C(C)C(=O)C(CCCCC#CCCCC#CCO)=C(C)C1=O [AA861]
Specific Binding (% control) of ^125I-[Nle14]-bombesin (bombesin receptor; 12 μM LOX blocker): 112 ± 4 % control | Specific Binding (% control) of ^125I-[Nle14]-bombesin (bombesin receptor; 60 μM LOX blocker): 135 ± 6 % control | Specific NT-Binding (% control) (NTR1 [2]; 10 μM LOX pathway blocker): 107 ± 4 % control | Specific NT-Binding (% control) (NTR1 [2]; 25 μM LOX pathway blocker): 109 ± 4 % control | Specific NT-Binding (% control) (NTR1 [2]; 75 μM LOX pathway blocker): 110 ± 5 % control | IC50 (5-LOX): 100 to 2000 nM

des-Gly-[Phaa1, D-Tyr(Et)2, Lys6, Arg8]-vasopressin (HOLVA) (peptide)
Specific Binding (% control) [3]: 50 % control | Specific Binding (% control) [4]: 42 % control | Specific Binding (% control) [5]: 87 % control | Binding (% control) [6]: 110 % control | Ki [7]: 0.5 nM | Specific Binding (% control) [8]: 59 % control | Specific Binding (% control) [9]: 92 % control | Specific Binding (% control) [10]: 73 % control | Specific Binding (% control) [11]: 93 % control | Specific Binding (% control) [12]: 85 % control | Specific Binding (% control) [13]: 84 % control | Specific Binding (% control) [14]: 67 % control | Specific Binding (% control) [15]: 58 % control | Binding (% control) [16]: 90 % control | Binding (% control) [17]: 91 % control | Specific Binding (% control) [18]: 68 % control | Bmax [19]: 156 fmol/mg | Specific Binding (% control) [20]: 50 % control | Specific Binding (% control) [21]: 80 % control | Specific Binding (% control) [22]: 57 % control | Specific Binding (% of total) [23]: 77 % of total | Specific Binding (% control) [24]: 95 % control

[Tyr^4, Nle^14]-bombesin (peptide)
Specific Binding (% control) [25]: 106 % control | Specific Binding (% control) [26]: 119 % control | Specific Binding (% control) [27]: 112 % control | Ki [28]: 0.6 nM | Specific Binding (% control) [29]: 119 % control | Specific Binding (% control) [30]: 104 % control | Specific Binding (% control) [31]: 111 % control | Specific Binding (% control) [32]: 106 % control | Specific Binding (% control) [33]: 104 % control | Specific Binding (% control) [34]: 110 % control | Specific Binding (% control) [35]: 125 % control | Specific Binding (% control) [36]: 104 % control | Specific Binding (% control) [37]: 107 % control | Bmax [38]: 1020 fmol/mg | Specific Binding (% control) [39]: 127 % control | Specific Binding (% control) [40]: 99 % control | Specific Binding (% control) [41]: 135 % control | Specific Binding (% of total) [42]: 95 % of total | Specific Binding (% control) [43]: 108 % control

^125I-[4-azido-Phe^6]-NT (peptide)
fold increase in radioactivity associated with NTR1 [44]: 2.7 fold | fold increase in radioactivity associated with NTR1 [45]: 2.6 fold | fold increase in radioactivity associated with NTR1 [46]: 1.8 fold | fold increase in radioactivity associated with NTR1 [47]: 2.8 fold | fold increase in radioactivity associated with NTR1 [48]: 1.5 fold

CCNC(=O)[C@H]1O[C@@H](n2cnc3c(N)nc(NCCc4ccc(CCC(=O)O)cc4)nc32)[C@H](O)[C@@H]1O [CGS21683]
NT Binding Efficacy % increase (NTR1 [49]): 228 % increase | IC50 (5-LOX): 10 to 1000 nM

From patent publication US20060062729A1, “Enhanced ligand binding to neurotensin receptors” (priority 2004, published 2006)
